Test results reported in the supplement of paper PMC7877785.
± gives the uncertainty stated by the source.

Experiment: self-splicing fitness, log relative to wild type (ln ratio); higher = more splicing; Tetrahymena group I intron in knt gene, E. coli kanamycin selection, DiMSum; sequences stand for … in CUCUCU…GGAGGGAAAAGUUAUCAGGCAUGCACCUGGUAGCUAGUCUUUAAACCAAUAGAUUGCAUCGGUUUAAAAGGCAAGACCGUCAAAUUGCGGGAAAGGGGUCAACAGCCGUUCAGUACCAAGUCUCAGGGGAAACUUUGAGAUGGCCUUGCAAAGGGUAUGGUAAUAAGCUGACGGACAUGGUCCUAACCACGCAGCCAAGUCCUAAGUCAACAGAUCUUCUGUUGAUAUGGAUGCAGUUCACAGACUAAAUGUCGGUCGGGGAAGAUGUAUUCUUCUCAUAAGAUAUAGUCGGACCUCUCCUUAAUGGGAGCUAGCGGAUGAAGUGAUGCAACACUGGAGCCGCUGGGAACUAAUUUGUAUGCGAAAGUAUAUUGAUUAGUUUUGGAGUACUCGUGGUCG
Method in brief: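 Six replicate transformations of E. coli BL21(DE3) with a pET-22b(+) library were grown overnight at 37°C or 30°C. The library randomised all eight P1ex-region intron nucleotides, the intron lying in the knt kanamycin-resistance gene, and plates were LB agar with or without 25 μg/mL kanamycin plus 100 μg/mL carbenicillin, 50 μM IPTG and 0.2% rhamnose. Pooled colonies were amplicon-sequenced on an Illumina HiSeq 2500, and fitness is the DiMSum error-weighted combination of wild-type-normalised replicate fold changes, kanamycin versus none.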

Sequence | self-splicing fitness (ln) (30 °C) | self-splicing fitness (ln) (37 °C)
CCGAAGCAAUAUUACGGUGG | -4.27 ± 0.24 | -1.35 ± 0.11
CCGAAGCAAUAUUACGGUGU | -3.91 ± 0.21 | -2.09 ± 0.14
CCGAAGCAAUAUUACGGUUC | -3.74 ± 0.26 | -2.66 ± 0.2
CCGAAGCAAUAUUACGGUUU | -4.44 ± 0.25 | -2.23 ± 0.17
CCGAAGCAAUAUUACGUAAC | -4.94 ± 0.34 | -1.67 ± 0.2
CCGAAGCAAUAUUACGUACU | -3.91 ± 0.27 | -2.39 ± 0.19
CCGAAGCAAUAUUACGUCAC | -3.29 ± 0.35 | 
CCGAAGCAAUAUUACGUCAU | -4.87 ± 0.42 | -3.03 ± 0.33
CCGAAGCAAUAUUACGUGAG | -1 ± 0.065 | -0.698 ± 0.084
CCGAAGCAAUAUUACGUUAC | -3.03 ± 0.16 | -2.43 ± 0.26
CCGAAGCAAUAUUACGUUAG | -1.97 ± 0.093 | -0.908 ± 0.082
CCGAAGCAAUAUUACGUUGG | -3.26 ± 0.19 | -2.16 ± 0.19
CCGCAGCAAUAUUACGAAAG | -0.925 ± 0.066 | 0.125 ± 0.084
CCGCAGCAAUAUUACGAAAU | -3.66 ± 0.32 | -3.38 ± 0.33
CCGCAGCAAUAUUACGAACA | -2.19 ± 0.27 | 
CCGCAGCAAUAUUACGACCU | -3.36 ± 0.23 | -2.63 ± 0.29
CCGCAGCAAUAUUACGACGC | -3.71 ± 0.35 | -2.74 ± 0.27
CCGCAGCAAUAUUACGACUG | -3.17 ± 0.14 | -1.71 ± 0.13
CCGCAGCAAUAUUACGAGCC | -3.64 ± 0.23 | -2.09 ± 0.2
CCGCAGCAAUAUUACGAGGG | -1.99 ± 0.091 | -2.71 ± 0.19
CCGCAGCAAUAUUACGAGUG | -0.193 ± 0.052 | -0.212 ± 0.069
CCGCAGCAAUAUUACGAUAA | -2 ± 0.19 | -1.2 ± 0.24
CCGCAGCAAUAUUACGAUUU | -3.28 ± 0.14 | -2.22 ± 0.15
CCGCAGCAAUAUUACGCAGG | -2.77 ± 0.11 | -2.93 ± 0.2
CCGCAGCAAUAUUACGCCGA | -2.35 ± 0.19 | -1.42 ± 0.14

Sequence | self-splicing fitness (ln) (30 °C) | self-splicing fitness (ln) (37 °C)
CCGCAGCAAUAUUACGGACU | -3.14 ± 0.17 | -2.31 ± 0.25
CCGCAGCAAUAUUACGGAUA | -4.16 ± 0.22 | -2.91 ± 0.23
CCGCAGCAAUAUUACGGAUC |  | -2.39 ± 0.41
CCGCAGCAAUAUUACGGGAA | -4.03 ± 0.28 | -2.71 ± 0.23
CCGCAGCAAUAUUACGGUAA | -3.69 ± 0.27 | -1.99 ± 0.18
CCGCAGCAAUAUUACGGUCG | -0.439 ± 0.053 | 0.0144 ± 0.066
CCGCAGCAAUAUUACGUAAC | -3.86 ± 0.3 | -2.7 ± 0.29
CCGCAGCAAUAUUACGUACG | -0.247 ± 0.058 | 0.254 ± 0.069
CCGCAGCAAUAUUACGUAUC | -4.05 ± 0.28 | -1.91 ± 0.2
CCGCAGCAAUAUUACGUCGU | -4.02 ± 0.17 | -2.79 ± 0.15
CCGCAGCAAUAUUACGUGUC | -3.88 ± 0.2 | -2.34 ± 0.14
CCGGAGCAAUAUUACGAACA | -2.82 ± 0.41 | -2.9 ± 0.32
CCGGAGCAAUAUUACGACAG | -0.593 ± 0.13 | -0.569 ± 0.14
CCGGAGCAAUAUUACGACAU | -3.816 ± 0.032 | -3.02 ± 0.045
CCGGAGCAAUAUUACGACGA | -0.828 ± 0.23 | -1.07 ± 0.24
CCGGAGCAAUAUUACGAGAG | -2.13 ± 0.22 | -2.33 ± 0.22
CCGGAGCAAUAUUACGAUGA | -2.7 ± 0.23 | -1.37 ± 0.23
CCGGAGCAAUAUUACGCAGU | -3.74 ± 0.28 | -2.13 ± 0.25
CCGGAGCAAUAUUACGCGAU | -3.82 ± 0.27 | -2.62 ± 0.33
CCGGAGCAAUAUUACGCGGU | -3.21 ± 0.16 | -2.96 ± 0.23
CCGGAGCAAUAUUACGCUCG | -3.16 ± 0.28 | 
CCGGAGCAAUAUUACGGACC | -2.12 ± 0.4 | -1.64 ± 0.45
CCGGAGCAAUAUUACGGAUC | -2.42 ± 0.31 | 
CCGGAGCAAUAUUACGGCGC |  | -0.565 ± 0.49
